Series [1] concerns the target histone H2A (calf thymus) (UniProt P0C0S9).
The target of series [2] is histone H2B (calf thymus) (UniProt P62808).
Series [3] has as its target histone H3 (calf thymus), intact protein (UniProt P68432).
In series [4] the test system is histone H3 N-terminal tail peptide (residues 1-20) di-acetylated at lysines 9 and 14.
In another series the target is histone H4 (calf thymus) (UniProt P62803).
The test system of series [5] is unacetylated histone H3 N-terminal tail peptide (residues 1-20).

Take “recombinant 6xHis-tagged full-length yeast Sir2p”: the “ADP-ribosylation (transfer of 32P from NAD, SDS-PAGE)” value with histone H1 (calf thymus) was “but not to H1, H2A and H4”; in series [1] it was “but not to H1, H2A and H4”; in series [2] it was “transferred radioactive ADP-ribose to H2B and H3”; in series [3], “transferred radioactive ADP-ribose to H2B and H3”; with histone H4 (calf thymus) it was “but not to H1, H2A and H4”. In series [3], the “transfer of 32P from NAD (SDS-PAGE)” value is 32P was transferred from NAD to intact histone H3. In addition, the “ADP-ribosylation of peptide (32P-NAD, thin layer chromatography)” value is “Both the yeast and mouse Sir2 modified only the diacetylated H3 tail peptide” in series [4]; “modified only the diacetylated H3 tail peptide (unacetylated peptide not modified)” in series [5]. Moreover, in series [4], the “NAD-dependent deacetylation (HPLC, areas under peaks 1, 2 and 4)” value is on record as “at least 27% of the input peptide was deacetylated by Sir2p”. Moreover, the “deacetylation of Lys9 in peak 4 (Edman sequencing)” value in series [4] is given as “about 23% of Lys9”. In addition, the “deacetylation of Lys14 in peak 4 (Edman sequencing)” value in series [4] is reported as 27% of Lys 14.

Values taken from US8642284.
